# Experimental data reported in FireProtDB (doi:10.1021/bi00177a023).
# B1: Guanyl-specific ribonuclease T1, P00651 (parent)
# chain: MMYSKLLTLTTLLLPTALALPSLVERACDYTCGSNCYSSSDVSTAQAAGYQLHEDGETVGSNSYPHKYNNYEGFDFSVSSPYYEWPILSSGDVYSGGSPGADRVVFNENNQLAGVITHTGASGNNFVECT
# Variants of: B1
# Details: Aspergillus oryzae (strain ATCC 42149 / RIB 40); pH 5; Thermal; DSC; Sodium borate-NaOH 10 mM; NaCl 80 mM; reversible: yes; structure 1RN1; whole UniProt chain shown
Variant,Tm [°C],heat capacity change of unfolding [kcal/mol/K],unfolding enthalpy (calorimetric) [kcal/mol],unfolding enthalpy (van 't Hoff) [kcal/mol]
MMYSKLLTLTTLLLPTALALPSLVERACDYTCGSNCYSSSDVSTAQAAGYKLHEDGETVGSNSYPHKYNNYEGFDFSVSSPYYEWPILSSGDVYSGGSPGADRVVFNENNQLAGVITHTGASGNNFVECT [Q51K],61.2,1.14,122,115

# Same assay, conditions: Aspergillus oryzae (strain ATCC 42149 / RIB 40); pH 6; Thermal; DSC; Sodium borate-NaOH 10 mM; NaCl 80 mM; reversible: yes; structure 1RN1; whole UniProt chain shown
Variant,Tm [°C],heat capacity change of unfolding [kcal/mol/K],unfolding enthalpy (calorimetric) [kcal/mol],unfolding enthalpy (van 't Hoff) [kcal/mol]
MMYSKLLTLTTLLLPTALALPSLVERACDYTCGSNCYSSSDVSTAQAAGYKLHEDGETVGSNSYPHKYNNYEGFDFSVSSPYYEWPILSSGDVYSGGSPGADRVVFNENNQLAGVITHTGASGNNFVECT [Q51K],56.9,0.99,112,110

# Same assay, conditions: Aspergillus oryzae (strain ATCC 42149 / RIB 40); pH 6.5; Thermal; DSC; Sodium borate-NaOH 10 mM; NaCl 80 mM; reversible: yes; structure 1RN1; whole UniProt chain shown
Variant,Tm [°C],heat capacity change of unfolding [kcal/mol/K],unfolding enthalpy (calorimetric) [kcal/mol],unfolding enthalpy (van 't Hoff) [kcal/mol]
MMYSKLLTLTTLLLPTALALPSLVERACDYTCGSNCYSSSDVSTAQAAGYKLHEDGETVGSNSYPHKYNNYEGFDFSVSSPYYEWPILSSGDVYSGGSPGADRVVFNENNQLAGVITHTGASGNNFVECT [Q51K],54,1.19,109,109

# Same assay, conditions: Aspergillus oryzae (strain ATCC 42149 / RIB 40); pH 8.6; Thermal; DSC; Sodium borate-NaOH 10 mM; NaCl 80 mM; reversible: yes; structure 1RN1; whole UniProt chain shown
Variant,Tm [°C],heat capacity change of unfolding [kcal/mol/K],unfolding enthalpy (calorimetric) [kcal/mol],unfolding enthalpy (van 't Hoff) [kcal/mol]
MMYSKLLTLTTLLLPTALALPSLVERACDYTCGSNCYSSSDVSTAQAAGYKLHEDGETVGSNSYPHKYNNYEGFDFSVSSPYYEWPILSSGDVYSGGSPGADRVVFNENNQLAGVITHTGASGNNFVECT [Q51K],46.6,1.15,97.6,102

# Same assay, conditions: Aspergillus oryzae (strain ATCC 42149 / RIB 40); pH 9.7; Thermal; DSC; Sodium borate-NaOH 10 mM; NaCl 80 mM; reversible: yes; structure 1RN1; whole UniProt chain shown
Variant,Tm [°C],heat capacity change of unfolding [kcal/mol/K],unfolding enthalpy (calorimetric) [kcal/mol],unfolding enthalpy (van 't Hoff) [kcal/mol]
MMYSKLLTLTTLLLPTALALPSLVERACDYTCGSNCYSSSDVSTAQAAGYKLHEDGETVGSNSYPHKYNNYEGFDFSVSSPYYEWPILSSGDVYSGGSPGADRVVFNENNQLAGVITHTGASGNNFVECT [Q51K],44,1.38,94,105
